The target in the test is T1, huNABA-avi-his (hybrid protein N-A1-B3-A2: N and A1 domains of human BGP, B3 domain of human CEA, A2 domain … (human, biotinylated at the avi tag (in vivo, co-transfected biotin ligase))).
T1 construct: also called NABA-avi-his reagent; biotinylated NABA
T1 chain: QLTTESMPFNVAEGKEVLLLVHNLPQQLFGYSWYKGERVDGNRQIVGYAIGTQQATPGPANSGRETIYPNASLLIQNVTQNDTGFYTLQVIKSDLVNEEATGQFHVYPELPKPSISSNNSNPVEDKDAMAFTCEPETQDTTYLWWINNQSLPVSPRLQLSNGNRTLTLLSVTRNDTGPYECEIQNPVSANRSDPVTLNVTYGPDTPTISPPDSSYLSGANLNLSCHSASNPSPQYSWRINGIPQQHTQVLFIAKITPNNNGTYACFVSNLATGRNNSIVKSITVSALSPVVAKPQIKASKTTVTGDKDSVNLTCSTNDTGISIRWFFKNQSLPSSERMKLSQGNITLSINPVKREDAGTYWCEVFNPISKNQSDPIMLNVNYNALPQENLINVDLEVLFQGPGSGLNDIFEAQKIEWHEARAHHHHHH
The test can be described thus: Biacore on immobilized NABA-avi-his; Bivalent Affinity.

As usually defined, the koff is the rate constant with which the complex falls apart. Low values mean slow dissociation, high ones fast dissociation. The term kon denotes the rate constant with which the complex forms. Low readings indicate slower complex formation, high ones faster complex formation.

B1: H4E9 x 2F1 (bivalent) (antibody, V domains shown)
VH: QVQLVQSGSELKKPGASVKVSCKASGYTFTEFGMNWVRQAPGQGLEWMGWINTKTGEATYIEEFKGRFVFSLDTSVSTAYLQISSLKAEDTAVYYCARWDFYDYVEAMDYWGQGTTVTVSS
VL: DIQMTQSPSSLSASVGDRVTITCKASAAVGTYVAWYQQKPGKAPKLLIYSASYRKRGVPSRFSGSGSGTDFTLTISSLQPEDFATYYCHQYYTYPLFTFGQGTKLEIKR
notes: bivalent form of the clone
The molecule B1 gave a Kd of 452 pM, a koff of 0.000191 s⁻¹ and a kon of 423000 M⁻¹ s⁻¹.

B2: H4E9 x 3A1 (antibody, V domains shown)
VH: QVQLVQSGSELKKPGASVKVSCKASGYTFTEFGMNWVRQAPGQGLEWMGWINTKTGEATYIEEFKGRFVFSLDTSVSTAYLQISSLKAEDTAVYYCARWDFYDYVEAMDYWGQGTTVTVSS
VL: DIQMTQSPSSLSASVGDRVTITCKASANVGNNVAWYQQKPGKAPKLLIYLASNRSGGVPSRFSGSGSGTDFTLTISSLQPEDFATYYCHQYYTYPLFTFGQGTKLEIKR
notes: bivalent form
For B2, the Kd worked out at 550 pM, the koff was 0.000136 s⁻¹ and the kon was 246000 M⁻¹ s⁻¹.

B3: H3 Full (5) 8 x 2F1 (antibody, V domains shown)
VH: QVQLVQSGSELKKPGASVKVSCKASGYTFTEFGMNWVRQAPGQGLEWMGWINTKTGEATYVEEFKGRFVFSLDTSVSTAYLQISSLKAEDTAVYYCARWDFFEYFKTMDYWGQGTTVTVSS
VL: DIQMTQSPSSLSASVGDRVTITCKASAAVGTYVAWYQQKPGKAPKLLIYSASYRKRGVPSRFSGSGSGTDFTLTISSLQPEDFATYYCHQYYTYPLFTFGQGTKLEIK
notes: bivalent form; copies: 2 + 2
B3 returned a Kd of 280 pM, a koff of 0.000271 s⁻¹ and an on-rate constant (kon) of 993000 M⁻¹ s⁻¹.

B4: H3 Full (5) 19 x 2F1 (bivalent) (antibody, V domains shown)
VH: QVQLVQSGSELKKPGASVKVSCKASGYTFTEFGMSWVRQAPGQGLEWMGWINTKTGEATYVEEFKGRFVFSLDTSVSTAYLQISSLKAEDTAVYYCARWDAFEYVKALDYWGQGTTVTVSS
VL: DIQMTQSPSSLSASVGDRVTITCKASAAVGTYVAWYQQKPGKAPKLLIYSASYRKRGVPSRFSGSGSGTDFTLTISSLQPEDFATYYCHQYYTYPLFTFGQGTKLEIK
notes: bivalent form of the clone; copies: 2 + 2
Consider B4, for which the Kd came out at 160 pM, the koff worked out at 0.000284 s⁻¹ and the kon is 1.76e+06 M⁻¹ s⁻¹.

B5: 3A1 (bivalent) (antibody, V domains shown)
VH: QVQLVQSGSELKKPGASVKVSCKASGYTFTEFGMNWVRQAPGQGLEWMGWINTKTGEATYVEEFKGRFVFSLDTSVSTAYLQISSLKAEDTAVYYCARWDFYDYVEAMDYWGQGTTVTVSS
VL: DIQMTQSPSSLSASVGDRVTITCKASANVGNNVAWYQQKPGKAPKLLIYLASNRSGGVPSRFSGSGSGTDFTLTISSLQPEDFATYYCHQYYTYPLFTFGQGTKLEIK
notes: bivalent form of the clone
B5 gave a Kd of 1500 pM, a koff of 0.000364 s⁻¹ and a kon of 242000 M⁻¹ s⁻¹.

B6: 1C8 x 2F1 (bivalent) (antibody, V domains shown)
VH: QVQLVQSGSELKKPGASVKVSCKASGYTFTEFGMNWVRQAPGQGLEWMGWINTKTGEATYVEEFKGRFVFSLDTSVSTAYLQISSLKAEDTAVYYCARWDFYHYVEAMDYWGQGTTVTVSS
VL: DIQMTQSPSSLSASVGDRVTITCKASAAVGTYVAWYQQKPGKAPKLLIYSASYRKRGVPSRFSGSGSGTDFTLTISSLQPEDFATYYCHQYYTYPLFTFGQGTKLEIK
notes: as for B4
As to B6, the Kd is 660 pM, the koff is 0.000636 s⁻¹ and the kon turned out to be 968000 M⁻¹ s⁻¹.

B7: 1C8 x 3A1 (antibody, V domains shown)
VH: QVQLVQSGSELKKPGASVKVSCKASGYTFTEFGMNWVRQAPGQGLEWMGWINTKTGEATYVEEFKGRFVFSLDTSVSTAYLQISSLKAEDTAVYYCARWDFYHYVEAMDYWGQGTTVTVSS
VL: DIQMTQSPSSLSASVGDRVTITCKASANVGNNVAWYQQKPGKAPKLLIYLASNRSGGVPSRFSGSGSGTDFTLTISSLQPEDFATYYCHQYYTYPLFTFGQGTKLEIK
notes: bivalent form
In the case of B7, the Kd was 888 pM, the koff was found to be 0.000257 s⁻¹ and the kon came to 289000 M⁻¹ s⁻¹.

For the origin of these results see patent US20230365711A1 (Hoffmann-La Roche, published 2023).
